Measured values from PMC7368063, “An FGF15/19-TFEB regulatory loop controls hepatic cholesterol and bile acid homeostasis”.

Target: TFEB (rhTFEB) (human, UniProt P19484 1-476)
Assay: EMSA; EMSA kit with SYBR green (Thermo Fisher), 5 pmol annealed probe, 200 ng rhTFEB; buffer, salt, pH and temperature not stated
Conditions: protein: commercial; chain copies: 2

Sequence of TFEB (rhTFEB) (P19484 whole entry): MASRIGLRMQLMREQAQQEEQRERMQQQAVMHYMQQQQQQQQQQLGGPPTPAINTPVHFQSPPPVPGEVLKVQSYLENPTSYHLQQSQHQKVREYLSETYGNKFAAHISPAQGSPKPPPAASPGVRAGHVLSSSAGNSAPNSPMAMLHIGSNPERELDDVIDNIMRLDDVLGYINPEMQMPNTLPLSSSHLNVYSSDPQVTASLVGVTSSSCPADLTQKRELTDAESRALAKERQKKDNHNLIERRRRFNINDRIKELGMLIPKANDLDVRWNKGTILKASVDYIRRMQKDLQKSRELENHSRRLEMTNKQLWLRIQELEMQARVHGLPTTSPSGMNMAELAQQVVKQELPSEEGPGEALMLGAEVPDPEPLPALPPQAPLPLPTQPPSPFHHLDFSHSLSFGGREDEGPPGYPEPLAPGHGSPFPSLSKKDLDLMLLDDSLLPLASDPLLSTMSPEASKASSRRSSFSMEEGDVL

B1: NPC2 CLEAR probe (positive control) (dsDNA)
DNA 1: GCGCGGGCGGGCCTCAGCTGTGGTTACTGGTGACAGGTCGCCTGA
DNA 2: TCAGGCGACCTGTCACCAGTAACCACAGCTGAGGCCCGCCCGCGC
B1: binds.
